Assay results reported in publication PMC7827474, “DnaJ Proteins Regulate WUS Expression in Shoot Apical Meristem of Arabidopsis”.

Tests used:
[1] = target: T1, MBP:WUS (Arabidopsis thaliana, UniProt Q9SB92 1-292); test: EMSA; EMSA: 10 mM HEPES pH 7.8, 20 mM KCl, 1 mM MgCl2, 21 mM DTT (so in the source), 7.5% glycerol, 0.5% Triton-100, 300 ng carrier DNA, 0.02% BSA, 10 uL, 22 C, 30 min; 8%; conditions: protein: recombinant; tags: MBP; chain copies: 2; label: Texas Red (3' end per Methods); blunt
T1 sequence: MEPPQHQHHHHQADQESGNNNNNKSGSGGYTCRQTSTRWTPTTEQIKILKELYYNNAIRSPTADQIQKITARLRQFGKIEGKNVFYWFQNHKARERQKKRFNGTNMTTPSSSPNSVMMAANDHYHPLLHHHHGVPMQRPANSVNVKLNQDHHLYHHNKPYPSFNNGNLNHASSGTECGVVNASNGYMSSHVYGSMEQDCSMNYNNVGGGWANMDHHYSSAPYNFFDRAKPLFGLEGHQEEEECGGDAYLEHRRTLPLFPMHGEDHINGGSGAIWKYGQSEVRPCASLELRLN

[2] = target: T2, MBP:WUS;MBP:SDJ3 (Arabidopsis thaliana;Arabidopsis …, UniProt Q9SB92;F4I0F5 1-292;1-797, |); test: EMSA; more efficient than WUS alone; EMSA: 10 mM HEPES pH 7.8, 20 mM KCl, 1 mM MgCl2, 21 mM DTT (so in the source), 7.5% glycerol, 0.5% Triton-100, 300 ng carrier DNA, 0.02% BSA, 10 uL, 22 C, 30 min; 8%; conditions: protein: recombinant;recombinant; tags: MBP;MBP; label: Texas Red (3' end per Methods); blunt
T2 sequence 1: T1 sequence
T2 sequence 2: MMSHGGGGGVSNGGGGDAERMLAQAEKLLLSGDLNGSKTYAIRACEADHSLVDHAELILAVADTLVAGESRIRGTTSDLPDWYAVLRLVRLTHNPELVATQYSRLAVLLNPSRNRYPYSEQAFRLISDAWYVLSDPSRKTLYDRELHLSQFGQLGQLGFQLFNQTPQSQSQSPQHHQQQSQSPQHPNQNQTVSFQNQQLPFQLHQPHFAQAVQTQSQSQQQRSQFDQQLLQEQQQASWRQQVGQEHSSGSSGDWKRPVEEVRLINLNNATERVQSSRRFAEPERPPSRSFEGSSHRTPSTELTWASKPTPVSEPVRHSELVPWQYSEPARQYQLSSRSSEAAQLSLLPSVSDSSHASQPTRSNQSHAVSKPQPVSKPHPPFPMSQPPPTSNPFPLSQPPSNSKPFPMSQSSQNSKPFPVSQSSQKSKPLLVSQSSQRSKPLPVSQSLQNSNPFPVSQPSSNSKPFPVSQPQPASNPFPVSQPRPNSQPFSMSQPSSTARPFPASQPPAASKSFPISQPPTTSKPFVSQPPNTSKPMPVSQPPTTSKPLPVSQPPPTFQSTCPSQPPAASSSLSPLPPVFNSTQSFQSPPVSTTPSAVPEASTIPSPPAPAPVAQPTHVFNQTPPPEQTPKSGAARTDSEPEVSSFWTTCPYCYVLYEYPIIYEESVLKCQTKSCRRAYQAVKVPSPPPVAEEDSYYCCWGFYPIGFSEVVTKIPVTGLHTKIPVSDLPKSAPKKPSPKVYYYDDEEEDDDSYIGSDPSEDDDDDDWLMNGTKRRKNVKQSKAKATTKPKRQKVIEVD

[3] = target: T3, MBP:WUS;MBP:At5g09540 (Arabidopsis thaliana;Arabidopsis …, UniProt Q9SB92;A2RVL3 1-292;1-280, |); test: as above; conditions: protein: recombinant;recombinant; tags: MBP;MBP; label: Texas Red (3' end per Methods); blunt
T3 sequence 1: T1 sequence
T3 sequence 2: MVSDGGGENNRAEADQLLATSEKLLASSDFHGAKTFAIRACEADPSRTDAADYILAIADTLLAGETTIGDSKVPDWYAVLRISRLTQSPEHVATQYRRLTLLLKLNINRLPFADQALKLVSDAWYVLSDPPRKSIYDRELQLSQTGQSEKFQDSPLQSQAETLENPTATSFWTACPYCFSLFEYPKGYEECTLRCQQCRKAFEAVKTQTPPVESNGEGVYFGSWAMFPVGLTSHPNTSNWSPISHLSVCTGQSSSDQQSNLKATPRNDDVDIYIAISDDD

Measured: binding result

B1: WUS promoter probe (pWUS) (dsDNA)
DNA 1: CTAGAATGAATAATAAAAAAAGTGAAAACCGTTTGATCATAA
DNA 2: TTATGATCAAACGGTTTTCACTTTTTTTATTATTCATTCTAG
binds: [1] | [2] | [3]
